Results from publication PMC3325269, “Non-Agonistic Bivalent Antibodies That Promote c-MET Degradation and Inhibit Tumor Growth and Others Specific for Tumor Related c-MET” (PLoS ONE, 2012).

Assays:
[1] = biological target: T1, c-MET extracellular domain (Homo sapiens, UniProt P08581); assay: SPR; BIAcore; c-MET extracellular domain immobilized, different concentrations of purified LMH antibodies (intact IgG); details: both partners purified
T1 construct: c-MET extracellular domain; also called immobilized c-MET extracellular domain

[2] = biological target: T2, c-MET on the surface of A549 lung cancer cells (Homo sapiens (A549), UniProt P08581); assay: flow cytometry on cells; A549 cells, 10 µg/ml of each LMH antibody in 1% HSA/PBS, 1 h at 4°C; anti-mouse IgG-PE secondary; details: one partner purified
T2 construct: c-MET, the receptor for hepatocyte growth factor/scatter factor, as expressed on cells; also called surface c-MET; c-MET receptor; source: endogenous, on A549 cells (U87MG cells in one down-regulation assay)

[3] = biological target: T3, mature c-MET (disulphide-linked α/β heterodimer) (Homo sapiens (A549), UniProt P08581); assay: co-IP; immunoprecipitation of endogenous c-MET from A549 lysates (Triton X-100 lysis buffer) with the LMH antibody; membranes blotted with mAb 25H2; details: one partner purified
T3 construct: c-MET α-chain, extracellular 50 kDa product of furin cleavage of the precursor; c-MET β-chain, extracellular/intracellular 145 kDa product of furin cleavage of the precursor, contains the TK domain; Detected in the immunoprecipitates by the 145 kDa β-chain band (mAb 25H2); also called mature receptor; source: endogenous, A549 lysate

T2 sequence (P08581 25-1390): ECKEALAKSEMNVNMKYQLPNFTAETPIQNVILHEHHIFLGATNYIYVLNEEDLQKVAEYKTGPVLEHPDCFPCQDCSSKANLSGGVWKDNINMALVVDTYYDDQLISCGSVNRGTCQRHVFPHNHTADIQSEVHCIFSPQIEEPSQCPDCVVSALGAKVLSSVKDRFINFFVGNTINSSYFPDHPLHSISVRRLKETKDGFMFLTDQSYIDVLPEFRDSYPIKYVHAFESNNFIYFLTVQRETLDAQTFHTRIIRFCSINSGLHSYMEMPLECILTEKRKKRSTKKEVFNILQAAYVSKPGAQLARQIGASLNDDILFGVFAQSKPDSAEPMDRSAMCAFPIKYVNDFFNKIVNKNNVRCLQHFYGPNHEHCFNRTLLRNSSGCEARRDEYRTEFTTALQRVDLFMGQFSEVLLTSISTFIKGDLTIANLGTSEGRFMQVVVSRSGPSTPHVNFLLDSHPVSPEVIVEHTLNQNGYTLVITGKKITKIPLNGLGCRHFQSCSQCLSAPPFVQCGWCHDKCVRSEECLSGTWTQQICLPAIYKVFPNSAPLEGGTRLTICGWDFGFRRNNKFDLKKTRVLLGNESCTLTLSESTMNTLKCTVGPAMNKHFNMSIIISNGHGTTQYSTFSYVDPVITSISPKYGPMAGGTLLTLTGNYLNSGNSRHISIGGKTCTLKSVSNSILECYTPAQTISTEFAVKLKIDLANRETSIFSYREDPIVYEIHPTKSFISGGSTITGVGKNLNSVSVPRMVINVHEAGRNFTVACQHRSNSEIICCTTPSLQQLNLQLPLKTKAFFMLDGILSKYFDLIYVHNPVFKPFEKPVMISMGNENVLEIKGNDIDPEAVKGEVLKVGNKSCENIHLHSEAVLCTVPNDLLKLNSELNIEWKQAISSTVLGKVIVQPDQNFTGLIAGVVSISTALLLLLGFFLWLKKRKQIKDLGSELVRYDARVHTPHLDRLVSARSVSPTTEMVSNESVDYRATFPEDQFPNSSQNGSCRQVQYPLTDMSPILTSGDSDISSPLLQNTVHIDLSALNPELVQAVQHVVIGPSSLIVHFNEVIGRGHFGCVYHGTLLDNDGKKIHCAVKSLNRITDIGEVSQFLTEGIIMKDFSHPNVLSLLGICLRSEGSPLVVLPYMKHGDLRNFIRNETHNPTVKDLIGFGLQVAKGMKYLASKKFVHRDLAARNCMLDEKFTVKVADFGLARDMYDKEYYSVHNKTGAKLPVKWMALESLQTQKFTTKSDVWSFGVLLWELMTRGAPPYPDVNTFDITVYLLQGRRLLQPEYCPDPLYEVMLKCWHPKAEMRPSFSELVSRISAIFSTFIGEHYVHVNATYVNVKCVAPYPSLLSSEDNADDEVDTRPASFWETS
T1 sequence (P08581 25-932): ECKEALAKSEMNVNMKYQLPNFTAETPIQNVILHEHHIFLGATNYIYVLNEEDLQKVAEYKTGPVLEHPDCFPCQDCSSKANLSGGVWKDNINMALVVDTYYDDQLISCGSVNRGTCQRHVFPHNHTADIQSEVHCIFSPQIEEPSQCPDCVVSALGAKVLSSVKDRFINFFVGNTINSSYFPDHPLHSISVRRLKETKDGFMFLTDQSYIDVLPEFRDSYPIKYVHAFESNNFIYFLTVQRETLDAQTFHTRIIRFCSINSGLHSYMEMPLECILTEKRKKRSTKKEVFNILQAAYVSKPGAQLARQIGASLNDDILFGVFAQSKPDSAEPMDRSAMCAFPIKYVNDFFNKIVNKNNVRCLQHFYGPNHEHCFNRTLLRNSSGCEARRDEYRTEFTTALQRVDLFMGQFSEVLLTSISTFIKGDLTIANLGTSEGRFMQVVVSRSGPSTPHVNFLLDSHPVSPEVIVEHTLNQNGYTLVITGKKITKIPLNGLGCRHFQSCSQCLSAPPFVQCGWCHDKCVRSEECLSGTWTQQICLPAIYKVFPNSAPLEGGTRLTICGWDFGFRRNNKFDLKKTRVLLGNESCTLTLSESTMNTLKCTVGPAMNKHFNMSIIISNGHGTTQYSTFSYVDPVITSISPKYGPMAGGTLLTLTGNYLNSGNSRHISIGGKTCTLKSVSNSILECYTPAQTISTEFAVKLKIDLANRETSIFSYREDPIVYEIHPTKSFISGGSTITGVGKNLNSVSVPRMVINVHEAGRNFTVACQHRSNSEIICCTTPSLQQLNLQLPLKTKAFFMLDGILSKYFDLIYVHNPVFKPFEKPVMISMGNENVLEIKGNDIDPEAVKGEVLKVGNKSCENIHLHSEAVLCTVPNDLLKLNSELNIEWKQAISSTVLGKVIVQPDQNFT

Binder	Kd [1]	binding result [2]	binding result [3]
LMH 87 (antibody, V domains shown, VH domain; heavy chain constant region of a mouse IgG; VL (Vk) domain; light chain constant region of a mouse antibody (the methods call the variable segment Vk); Intact bivalent mouse monoclonal antibody; also called LMH 87 antibody; mAb LMH 87; source: clonal supernatants in the screening ELISA; copies: 2 + 2) VH: QVQLQQSGPELVKSGASVKMSCKASGNTLKDDHVHWVKQRPGQGLEWIGWIYPGGGRTRYNEKFKGKTTLTADKPSSTVNMLLSSLTSEDSAIYFCTNLVFDVWGAGTTVTVSS VL: DIVMTQAAPSVPVTPGESVSISCRSSKSLLHSNGNTYLYWFLQRPGQSPQVLIYRMSNLASGVPDRFSGSGSGTAFTLRIRRVEAEDVGVYYCMQNLEYPFTFGGGTKLEIK	2.6 nM		
LMH 85 (antibody, V domains shown, VH domain; heavy chain constant region of a mouse IgG; VL domain; light chain constant region of a mouse antibody; Intact bivalent mouse monoclonal antibody, agonist of c-MET; also called LMH 85 antibody; mAb LMH 85; source: clonal supernatants in the screening ELISA; copies: 2 + 2) VH: QVQLQQSGAELAKPGASVKMSCKASGYTFIIYWIHWIKQRPGQGLEWIGYINPSNDYTEYNQKFKDKATLTADKSSNTAFMQLSSLTSEDSAVYYCARDSYDYDDGAYAMDYWGQGTSVTVSS VL: QIVLSQSPAILSASPGEKVTMTCRASSGVNYMHWYQQKPGSSPKPWIYATSNLASGVPARFSGSGSGTSYSLTISRVEAEDAATYYCQQWISHPFTFGSGTKLEIK		binds	binds
